# Source: publication PMC5882710, “Amphotericin B-conjugated polypeptide hydrogels as a novel innovative strategy for fungal infections” (Royal Society Open Science, 2018)
# Tests used:
# Candida albicans [1] = assay: Time-kill curves at 1 x MIC and 2 x MIC; type: cell-based; conditions: C. albicans, 28°C, n = 3; for time for which antifungal activity is exhibited in time-kill curves: sampled 0, 1, 2, 4, 6, 8, 12 and 24 h
# Procedure: (§1) The minimum inhibitory concentration (MIC) of the Dex, AmB, Nap-FFDKY, Npx-FFDKY, Fmoc-FFDKY, Nap-AmB, Npx-AmB and Dex-AmB hydrogels was determined by a serial 2-fold dilution of test samples. Fourteen different concentrations of drugs and hydrogels were prepared in DMF solution. One millilitre of the fungal strain […] colony-forming unit (CFU)/tube was inoculated into each tube containing different concentrations (1 ml) of test samples and incubated at 28°C (200 rpm) for 24 h. The MIC was defined as the minimum concentration of the sample inhibiting the visible growth of the microorganism. The experiment was repeated at least three times. Based on the values of MIC, 0.1 ml of the fungal strain containing different concentrations of test samples which inhibited the visible growth of the microorganism was subcultivated on the Sabouraud's dextrose agar plates, and incubated at 28°C for 48 h. The minimum bactericidal concentration (MBC) determination was defined as the minimum concentration of the sample sterilizing the visible growth of the microorganism (lower than 5 CFU/plate). The experiment was repeated at least three times. Based on the values of MIC, the fungal strain containing 1 × MIC and 2 × MIC concentrations of test samples was incubated at 28°C. A test suspension containing 0.1 ml was taken out and used to evaluate fungus colonies at 0, 1, 2, 4, 6, 8, 12 and 24 h.
# Candida albicans [2] = assay: microbe, parasite or virus in culture; type: cell-based; conditions: for MIC: 24 h; for MBC: 48 h
# Procedure: as §1
# [3] = In vitro drug release of AmB or Dex from hydrogels; type: physicochemical; conditions: for final drug release percentage of AmB after 12 h: 0.3 ml PBS pH 7.4 containing trypsin 1 µg ml^−1, 37°C, HPLC-UV 383 nm; for final drug release percentage of AmB after 12 h / final drug release percentage of Dex after 12 h: n = 3; for final drug release percentage of Dex after 12 h / constant release rate of AmB / constant release rate of Dex: PBS pH 7.4 with trypsin 1 µg ml^−1, 37°C; for final drug release percentage of Dex after 12 h: HPLC-UV 240 nm; for constant release rate of AmB / constant release rate of Dex: entire measurement period (12 h); for diffusion exponent n of AmB release (Mt/M∞ = k·t^n) / diffusion exponent n of Dex release (Mt/M∞ = k·t^n) / rate constant k of AmB release (Mt/M∞ = k·t^n) / rate constant k of Dex release (Mt/M∞ = k·t^n): fit of release data, PBS pH 7.4, 37°C
# Procedure: The 2.0 wt%, 3.0 wt% and 4.0 wt% of Nap-AmB, Npx-AmB and Dex-AmB hydrogels within the 0.3 ml PBS solution containing trypsin (1 µg ml^−1) were prepared for drug release study. A quantity of 0.2 ml of the upper buffer solution was taken out and used to run HPLC at every 30 min and 0.2 ml of fresh PBS buffer solution containing trypsin (1 µg ml^−1) was added back each time. The experiments were conducted at 37°C. The areas of peaks in HPLC spectra were used to determine the percentage of AmB or Dex released from their corresponding hydrogels. The liquid chromatography system (Agilent 1200 series, America) comprised Degasser G1322A, Quaternary pump G1312B, Thermostated auto sampler HiP-ALS G1367C, column oven G1316A and ultraviolet detector G1314A. Separation was achieved using a SepaxGP-C18 reversed-phase column (250 mm × 4.6 mm internal diameter, 5 µm particle size) (America). The mobile phase of AmB analysis was acetonitrile-water (43 : 57, containing 0.05% TFA) at a flow-rate of 1 ml min^−1. Chromatography was carried out at 30°C and the detector wavelengths were set at 383 nm. The mobile phase of Dex analysis was acetonitrile-water (45 : 55, containing 0.05% TFA) at a flow rate of 1 ml min^−1. Chromatography was carried out at 30°C and the detector wavelengths were set at 240 nm. The experiment was conducted in three parallel experiments. […] Mt/M∞ is the fractional drug release, Mt is the amount of drug released at time t, M∞ is the maximum amount of drug released at time ∞, t is the release time, k is a rate constant of kinetic release and n is the diffusion exponent, characteristic of the drug release mechanism.
# [4] = Hydrogel formation (gelation time, minimum gel concentration); type: physicochemical; conditions: for minimum gel concentration needed for gelation: PBS solutions at 37°C; for gelation time: room temperature, PBS pH 7.4, 2 equiv. Na2CO3
# Procedure: General procedure for the formation of hydrogels: all the compounds dissolved in phosphate-buffered saline (PBS, pH 7.4). 2 equiv. of Na2CO3 (0.1 mol l^−1) were used to neutralize the carboxyl groups (─COOH) of compounds and adjust the pH to neutral. Then the hydrogels were formed at room temperature (22–25°C) or 37°C within 30 min.
# [5] = Solubility of hydrogelators in aqueous solutions; conditions: water, PBS solutions (pH = 7.4) and culture solutions
compound,measurement,setting,value
C[C@@H]1[C@H](O)[C@@H](C)/C=C/C=C/C=C/C=C/C=C/C=C/C=C/[C@H](O[C@@H]2O[C@H](C)[C@@H](O)[C@H](N)[C@@H]2O)C[C@@H]2O[C@](O)(C[C@@H](O)C[C@@H](O)[C@H](O)CC[C@@H](O)C[C@@H](O)CC(=O)O[C@H]1C)C[C@H](O)[C@H]2C(=O)NCCCC[C@H](NC(=O)[C@H](CC(=O)O)NC(=O)[C@H](Cc1ccccc1)NC(=O)[C@H](Cc1ccccc1)NC(=O)CCC(=O)OCC(=O)[C@@]1(O)[C@H](C)C[C@H]2[C@@H]3CCC4=CC(=O)C=C[C@]4(C)[C@@]3(F)[C@@H](O)C[C@@]21C)C(=O)N[C@@H](Cc1ccc(O)cc1)C(=O)O [Dex-AmB],speed of fungistatic effect in time-kill curves (in words),Candida albicans [1],exert fungistatic effect more quickly than AmB and Nap-AmB hydrogels
same,time for which antifungal activity is exhibited in time-kill curves,Candida albicans [1],2 h
same,MIC,Candida albicans [2],40.1 µg/mL
same,MBC,Candida albicans [2],643 µg/mL
same,final drug release percentage of AmB after 12 h,[3]; 2.0 wt% hydrogel,16.3%
same,final drug release percentage of Dex after 12 h,[3]; 2.0 wt% hydrogel,28.5%
same,constant release rate of AmB,[3]; 2.0 wt% hydrogel,about 0.1123 mg ml^−1 per hour
same,constant release rate of Dex,[3]; 2.0 wt% hydrogel,about 0.08359 mg ml^−1 per hour
same,diffusion exponent n of AmB release (Mt/M∞ = k·t^n),[3]; 2.0 wt% hydrogel,0.8265
same,diffusion exponent n of Dex release (Mt/M∞ = k·t^n),[3]; 2.0 wt% hydrogel,0.4404
same,rate constant k of AmB release (Mt/M∞ = k·t^n),[3]; 2.0 wt% hydrogel,about 0.2283
same,rate constant k of Dex release (Mt/M∞ = k·t^n),[3]; 2.0 wt% hydrogel,approximately 0.1211
same,final drug release percentage of AmB after 12 h,[3]; 3.0 wt% hydrogel,19.2%
same,final drug release percentage of Dex after 12 h,[3]; 3.0 wt% hydrogel,39.6%
same,constant release rate of AmB,[3]; 3.0 wt% hydrogel,~0.1994 mg ml^−1 per hour
same,constant release rate of Dex,[3]; 3.0 wt% hydrogel,~0.1743 mg ml^−1 per hour
same,diffusion exponent n of AmB release (Mt/M∞ = k·t^n),[3]; 3.0 wt% hydrogel,0.6474
same,diffusion exponent n of Dex release (Mt/M∞ = k·t^n),[3]; 3.0 wt% hydrogel,0.3576
same,rate constant k of AmB release (Mt/M∞ = k·t^n),[3]; 3.0 wt% hydrogel,~0.3669
same,rate constant k of Dex release (Mt/M∞ = k·t^n),[3]; 3.0 wt% hydrogel,~0.3039
same,final drug release percentage of AmB after 12 h,[3]; 4.0 wt% hydrogel,24.4%
same,final drug release percentage of Dex after 12 h,[3]; 4.0 wt% hydrogel,46.8%
same,constant release rate of AmB,[3]; 4.0 wt% hydrogel,~0.3517 mg ml^−1 per hour
same,constant release rate of Dex,[3]; 4.0 wt% hydrogel,~0.2867 mg ml^−1 per hour
same,diffusion exponent n of AmB release (Mt/M∞ = k·t^n),[3]; 4.0 wt% hydrogel,0.7971
same,diffusion exponent n of Dex release (Mt/M∞ = k·t^n),[3]; 4.0 wt% hydrogel,0.2587
same,rate constant k of AmB release (Mt/M∞ = k·t^n),[3]; 4.0 wt% hydrogel,~0.6436
same,rate constant k of Dex release (Mt/M∞ = k·t^n),[3]; 4.0 wt% hydrogel,~0.6024
same,minimum gel concentration needed for gelation,[4],~2.0 wt%
same,gelation time,[4],approximately 30 min
same,solubility in aqueous solutions (in words),[5],highly soluble
C[C@@H]1[C@H](O)[C@@H](C)/C=C/C=C/C=C/C=C/C=C/C=C/C=C/[C@H](O[C@@H]2O[C@H](C)[C@@H](O)[C@H](N)[C@@H]2O)C[C@@H]2O[C@](O)(C[C@@H](O)C[C@@H](O)[C@H](O)CC[C@@H](O)C[C@@H](O)CC(=O)O[C@H]1C)C[C@H](O)[C@H]2C(=O)NCCCC[C@H](NC(=O)[C@H](CC(=O)O)NC(=O)[C@H](Cc1ccccc1)NC(=O)[C@H](Cc1ccccc1)NC(=O)Cc1ccc2ccccc2c1)C(=O)N[C@@H](Cc1ccc(O)cc1)C(=O)O [Nap-AmB],time for which antifungal activity is exhibited in time-kill curves,Candida albicans [1],2 h
same,final drug release percentage of AmB after 12 h,[3]; 2.0 wt% hydrogel,36.3%
same,constant release rate of AmB,[3]; 2.0 wt% hydrogel,about 0.3188 mg ml^−1 per hour
same,diffusion exponent n of AmB release (Mt/M∞ = k·t^n),[3]; 2.0 wt% hydrogel,0.6874
same,rate constant k of AmB release (Mt/M∞ = k·t^n),[3]; 2.0 wt% hydrogel,approximately 0.2503
same,final drug release percentage of AmB after 12 h,[3]; 3.0 wt% hydrogel,47.3%
same,constant release rate of AmB,[3]; 3.0 wt% hydrogel,~0.6114 mg ml^−1 per hour
same,diffusion exponent n of AmB release (Mt/M∞ = k·t^n),[3]; 3.0 wt% hydrogel,0.5722
same,rate constant k of AmB release (Mt/M∞ = k·t^n),[3]; 3.0 wt% hydrogel,~0.4662
same,final drug release percentage of AmB after 12 h,[3]; 4.0 wt% hydrogel,62.1%
same,constant release rate of AmB,[3]; 4.0 wt% hydrogel,~1.015 mg ml^−1 per hour
same,diffusion exponent n of AmB release (Mt/M∞ = k·t^n),[3]; 4.0 wt% hydrogel,0.5481
same,rate constant k of AmB release (Mt/M∞ = k·t^n),[3]; 4.0 wt% hydrogel,~0.6379
same,minimum gel concentration needed for gelation,[4],about 0.5 wt%
same,gelation time,[4],3 min
same,solubility in aqueous solutions (in words),[5],highly soluble
COc1ccc2cc([C@H](C)C(=O)N[C@@H](Cc3ccccc3)C(=O)N[C@@H](Cc3ccccc3)C(=O)N[C@@H](CC(=O)O)C(=O)N[C@@H](CCCCNC(=O)[C@H]3[C@@H]4C[C@@H](O[C@@H]5O[C@H](C)[C@@H](O)[C@H](N)[C@@H]5O)/C=C/C=C/C=C/C=C/C=C/C=C/C=C/[C@H](C)[C@@H](O)[C@@H](C)[C@H](C)OC(=O)C[C@H](O)C[C@H](O)CC[C@@H](O)[C@H](O)C[C@H](O)C[C@](O)(C[C@@H]3O)O4)C(=O)N[C@@H](Cc3ccc(O)cc3)C(=O)O)ccc2c1 [Npx-AmB],speed of fungistatic effect in time-kill curves (in words),Candida albicans [1],exert fungistatic effect more quickly than AmB and Nap-AmB hydrogels
same,time for which antifungal activity is exhibited in time-kill curves,Candida albicans [1],2 h
same,MIC,Candida albicans [2],43.7 µg/mL
same,MBC,Candida albicans [2],349 µg/mL
same,final drug release percentage of AmB after 12 h,[3]; 2.0 wt% hydrogel,30.0%
same,constant release rate of AmB,[3]; 2.0 wt% hydrogel,about 0.2406 mg ml^−1 per hour
same,diffusion exponent n of AmB release (Mt/M∞ = k·t^n),[3]; 2.0 wt% hydrogel,0.7428
same,rate constant k of AmB release (Mt/M∞ = k·t^n),[3]; 2.0 wt% hydrogel,approximately 0.2846
same,final drug release percentage of AmB after 12 h,[3]; 3.0 wt% hydrogel,38.9%
same,constant release rate of AmB,[3]; 3.0 wt% hydrogel,~0.4837 mg ml^−1 per hour
same,diffusion exponent n of AmB release (Mt/M∞ = k·t^n),[3]; 3.0 wt% hydrogel,0.7784
same,rate constant k of AmB release (Mt/M∞ = k·t^n),[3]; 3.0 wt% hydrogel,~0.3358
same,final drug release percentage of AmB after 12 h,[3]; 4.0 wt% hydrogel,51.3%
same,constant release rate of AmB,[3]; 4.0 wt% hydrogel,~0.8332 mg ml^−1 per hour
same,diffusion exponent n of AmB release (Mt/M∞ = k·t^n),[3]; 4.0 wt% hydrogel,0.7771
same,rate constant k of AmB release (Mt/M∞ = k·t^n),[3]; 4.0 wt% hydrogel,~0.4387
same,minimum gel concentration needed for gelation,[4],~1.0 wt%
same,gelation time,[4],10 min
